Test results: the Human Domainome abundance scans (Beltran et al. 2025)
± gives the uncertainty stated by the source.

B1: POU domain, class 2, transcription factor 2, residues 200 to 269; numbered along this chain, P09086 (parent)
chain: LEELEQFARTFKQRRIKLGFTQGDVGLAMGKLYGNDFSQTTISRFEALNLSFKNMCKLKPLLEKWLNDAE

Variants of: B1
Test: abundance fitness (aPCA) (normalised: wild type 0, dead -1); higher = more abundant; growth selection in yeast, the domain comes from the species named
Conditions: Homo sapiens

Abundance fitness: each site, then its substitutions
F37: M -0.024 ± 0.076; H -0.093 ± 0.13; T -0.175 ± 0.065; V -0.065 ± 0.041; Q -0.061 ± 0.073; A -0.152 ± 0.056; C -0.06 ± 0.065; I 0.088 ± 0.068; G -0.28 ± 0.044; S -0.24 ± 0.049; K -0.434 ± 0.065; R -0.39 ± 0.044; L -0.052 ± 0.039; E -0.255 ± 0.08; D -0.4 ± 0.091
M29: R -0.655 ± 0.059; V 0.003 ± 0.053; K -0.95 ± 0.16; P -0.664 ± 0.081; I -0.211 ± 0.08; W -0.557 ± 0.061; L 0.072 ± 0.042; Q -0.463 ± 0.072; N -0.616 ± 0.14; A -0.131 ± 0.054; F -0.146 ± 0.07; C -0.076 ± 0.076; S -0.552 ± 0.058; D -0.314 ± 0.19; T -0.075 ± 0.05; Y -0.611 ± 0.14; H -0.681 ± 0.18; E -0.976 ± 0.19
L18: T -0.227 ± 0.052; V -0.234 ± 0.039; R -0.233 ± 0.035; M 0.014 ± 0.064; P -1.05 ± 0.13; W -0.216 ± 0.04; N -0.044 ± 0.094; Q -0.053 ± 0.084; S -0.193 ± 0.051; K -0.177 ± 0.045; Y -0.16 ± 0.067
G26: M -0.131 ± 0.045; K -0.113 ± 0.041; H -0.109 ± 0.12; D 0.047 ± 0.076; L -0.064 ± 0.034; E -0.023 ± 0.05; T -0.014 ± 0.052; P -0.299 ± 0.05; F -0.18 ± 0.084; V -0.022 ± 0.038; A -0.067 ± 0.047; Q 0.042 ± 0.071; Y -0.085 ± 0.076; I -0.157 ± 0.083; R -0.165 ± 0.035; W -0.023 ± 0.044; C -0.105 ± 0.065
V25: K -0.894 ± 0.057; A -0.01 ± 0.04; F -0.548 ± 0.097; G -1.05 ± 0.088; M -0.291 ± 0.055; C -0.229 ± 0.091; T -0.302 ± 0.046; Q -1.03 ± 0.1; P -0.915 ± 0.11; S -0.453 ± 0.046; I -0.098 ± 0.1; E -0.926 ± 0.088; H -0.996 ± 0.41; W -0.692 ± 0.065; R -0.696 ± 0.06
L27: Y 0.026 ± 0.12; H -0.043 ± 0.13; D -0.012 ± 0.072; G -0.049 ± 0.031; R 0.006 ± 0.028; S -0.073 ± 0.043; I -0.069 ± 0.081; W -0.105 ± 0.04; A 0.041 ± 0.036; M -0.033 ± 0.041; V 0.015 ± 0.038; C -0.057 ± 0.068; E -0.059 ± 0.047; N -0.019 ± 0.21; P -0.39 ± 0.051; T -0.092 ± 0.05
K31: C -0.054 ± 0.065; V -0.115 ± 0.049; A -0.019 ± 0.042; L -0.092 ± 0.041; M -0.168 ± 0.051; S -0.033 ± 0.061; I -0.136 ± 0.062; W -0.246 ± 0.061; R 0.002 ± 0.038; G -0.047 ± 0.031; Q -0.04 ± 0.055; P -0.142 ± 0.059; E -0.064 ± 0.055; H -0.119 ± 0.093; T -0.036 ± 0.072; F -0.336 ± 0.11; Y -0.178 ± 0.075; D -0.114 ± 0.055; N -0.166 ± 0.083
N35: P -0.017 ± 0.034; A -0.016 ± 0.05; I -0.15 ± 0.08; R -0.022 ± 0.04; W -0.026 ± 0.058; S -0.078 ± 0.04; T -0.203 ± 0.067; Y 0 ± 0.071; V -0.091 ± 0.047; H -0.114 ± 0.12; E 0.106 ± 0.055; D -0.095 ± 0.069; F -0.029 ± 0.077; M -0.049 ± 0.053; Q -0.104 ± 0.08
G23: V -0.029 ± 0.036; N -0.089 ± 0.096; D -0.055 ± 0.079; R -0.004 ± 0.035; H -0.056 ± 0.29; E -0.04 ± 0.05; P -0.136 ± 0.061; A 0.04 ± 0.034; Y -0.218 ± 0.096; Q -0.07 ± 0.068; K 0.029 ± 0.064; M -0.01 ± 0.062; W -0.076 ± 0.043; F -0.01 ± 0.14; L -0.021 ± 0.035; T -0.102 ± 0.049; I -0.004 ± 0.22
D24: N -0.091 ± 0.058; P -0.918 ± 0.099; V -0.169 ± 0.048; Y -0.095 ± 0.093; Q 0.003 ± 0.053; I -0.792 ± 0.28; S -0.091 ± 0.043; E -0.093 ± 0.065; C -0.172 ± 0.13; A -0.07 ± 0.048; M -0.125 ± 0.078; F -0.158 ± 0.11; R -0.177 ± 0.033; W -0.285 ± 0.045; T -0.199 ± 0.075; K -0.202 ± 0.067; L -0.215 ± 0.032; H -0.065 ± 0.076; G -0.113 ± 0.033
Q22: L -0.025 ± 0.042; A 0.004 ± 0.05; H -0.062 ± 0.11; R -0.11 ± 0.037; P -0.071 ± 0.051; F -0.097 ± 0.1; V -0.059 ± 0.038; N -0.351 ± 0.18; K -0.042 ± 0.07; G -0.187 ± 0.034; I -0.12 ± 0.16; C -0.004 ± 0.07; W -0.006 ± 0.047; M -0.054 ± 0.05; T -0.045 ± 0.049; Y -0.423 ± 0.1; S -0.093 ± 0.047
L32: K 0.01 ± 0.077; F -0.093 ± 0.063; W -0.201 ± 0.051; R -0.022 ± 0.035; M -0.021 ± 0.072; S -0.01 ± 0.046; N -0.163 ± 0.18; P -0.209 ± 0.077; I -0.049 ± 0.087; Y 0 ± 0.084; A -0.006 ± 0.05; C -0.083 ± 0.081; D 0.037 ± 0.082; H -0.126 ± 0.14; V -0.098 ± 0.045; T -0.071 ± 0.059; Q 0.04 ± 0.072; G -0.08 ± 0.034
G19: S -0.118 ± 0.034; L -0.321 ± 0.043; T -0.521 ± 0.077; V -0.986 ± 0.087; I -0.793 ± 0.34; Q -0.498 ± 0.037; H -0.086 ± 0.07; Y -0.908 ± 0.25; P -0.98 ± 0.17; C -0.349 ± 0.085; N -0.022 ± 0.099; R -0.128 ± 0.029; K -0.092 ± 0.07; M -0.268 ± 0.075; D -0.143 ± 0.11; F -0.461 ± 0.2; E -0.301 ± 0.057; W -0.926 ± 0.11
G34: C -0.143 ± 0.051; P -0.081 ± 0.053; F -0.177 ± 0.062; R -0.132 ± 0.038; S -0.062 ± 0.039; E 0.052 ± 0.064; D -0.065 ± 0.088; L -0.208 ± 0.032; V -0.168 ± 0.046; A -0.071 ± 0.046; Y -0.06 ± 0.11; W -0.207 ± 0.044; K -0.111 ± 0.07; H -0.018 ± 0.11; T -0.105 ± 0.086; M -0.208 ± 0.089; Q 0.087 ± 0.065; I -0.248 ± 0.065; N -0.068 ± 0.09
F20: K 0.005 ± 0.063; S -0.207 ± 0.04; W -0.065 ± 0.044; T -0.317 ± 0.061; R -0.083 ± 0.034; D -0.899 ± 0.16; L -0.004 ± 0.031; P -1.01 ± 0.17; Q -0.081 ± 0.058; V -0.13 ± 0.038; Y -0.111 ± 0.1; I -0.101 ± 0.1; H -0.035 ± 0.092; A -0.006 ± 0.043; N -0.427 ± 0.17
G30: C -0.068 ± 0.066; F -0.001 ± 0.056; I -0.083 ± 0.07; Y -0.051 ± 0.076; W -0.013 ± 0.054; V -0.052 ± 0.035; D -0.068 ± 0.028; K -0.071 ± 0.078; L -0.044 ± 0.049; P -0.223 ± 0.085; T 0.009 ± 0.074; S 0.061 ± 0.048; N 0.019 ± 0.072; A -0.041 ± 0.046; R -0.063 ± 0.043; Q 0.107 ± 0.14; H -0.013 ± 0.086
Y33: E -0.074 ± 0.062; S -0.041 ± 0.035; F -0.062 ± 0.087; W -0.105 ± 0.049; C -0.043 ± 0.046; I -0.076 ± 0.09; V -0.06 ± 0.048; N -0.156 ± 0.071; H -0.01 ± 0.091; K -0.062 ± 0.048; Q -0.07 ± 0.065; L -0.024 ± 0.036; M -0.055 ± 0.076; D -0.036 ± 0.079; T -0.016 ± 0.056; R -0.17 ± 0.035; P -0.068 ± 0.061; A -0.057 ± 0.032
A28: K -0.021 ± 0.096; R -0.027 ± 0.037; I -0.167 ± 0.077; T 0.031 ± 0.069; P -0.616 ± 0.068; E 0.06 ± 0.062; N -0.095 ± 0.088; M -0.047 ± 0.059; Y -0.101 ± 0.078; C -0.108 ± 0.051; V -0.01 ± 0.041; D 0.024 ± 0.074; H -0.064 ± 0.034; G -0.098 ± 0.036; S -0.079 ± 0.031; Q 0.061 ± 0.074; F -0.032 ± 0.059
D36: Q -0.047 ± 0.08; L -0.049 ± 0.036; Y 0.013 ± 0.09; A -0.05 ± 0.042; G -0.06 ± 0.031; V -0.048 ± 0.038; W -0.052 ± 0.048; R -0.034 ± 0.04; N -0.063 ± 0.061; E -0.026 ± 0.059; H -0.003 ± 0.17; S -0.05 ± 0.041; P -0.122 ± 0.053; C -0.12 ± 0.05; M -0.162 ± 0.07; F 0.017 ± 0.072; I -0.057 ± 0.08
T21: E -0.165 ± 0.043; I -0.746 ± 0.14; Q -0.205 ± 0.058; V -0.573 ± 0.052; K -0.173 ± 0.06; L -0.323 ± 0.041; A -0.138 ± 0.04; H -0.286 ± 0.12; W -0.633 ± 0.062; G -0.135 ± 0.032; S -0.044 ± 0.042; M -0.26 ± 0.058; F -0.625 ± 0.13; R -0.14 ± 0.03; Y -0.77 ± 0.2; C -0.212 ± 0.065
